This is an account of results in PMC6028548.

The target in test [1] is Kif18b-GFP-His (full-length Kif18-GFP-6×His) (human). As to the kind of experiment: single-molecule photobleaching (TIRF microscopy); Kif18b-GFP motors moving on GMP-CPP–stabilized microtubules; bleaching steps and intensities of GFP.
The target of test [2] is GMP-CPP–stabilized microtubules and dynamic microtubules grown from GMP-CPP seeds (TIRF assays) (UniProt P02550). The experiment in a line: single-molecule TIRF microscopy; rhodamine-labeled GMP-CPP microtubules held on the glass by anti–β-tubulin antibodies; 1–10 nM motor in BRB80 with 1 mM ATP, 0.5 mg/ml casein, oxygen scavengers; 37°C.
Test [3] addresses Kif18b-GFP-His (full-length Kif18-GFP-6×His) (human). As to the kind of experiment: SEC-MALS; Superdex 200 10/300 GL, MiniDAWN detector; Kif18b-GFP-His at 0.3 mg/ml in gel filtration buffer (25 mM Hepes, pH 7.5, 150 mM NaCl, 300 mM KCl, 5 mM β-mercaptoethanol, 1 mM MgCl2, 1 mM Na-EGTA, 1 mM ATP).
The next test has as its target Kif18b_(500–593) (human). As to the kind of experiment: SEC-MALS; Superdex 200 10/300 GL, MiniDAWN detector; protein at 2 mg/ml. (Size exclusion chromatography separates by hydrodynamic size, large species first.)

Regarding “Kif18b-GFP-His (full-length Kif18-GFP-6×His) (natural protein)”, the stoichiometry N in test [1] and in test [3] was 2 in each case. The dwell time at the microtubule plus end in test [2] was 22.8 s. For the substance Kif18b_(500–593) (domain or fragment), in the test with Kif18b_(500–593) (human), the stoichiometry N was 2.

As for Kif18bΔC-GFP-His (domain or fragment), the dwell time at the microtubule plus end in test [2] was 8.5 s.

What is called stoichiometry N is a count of units in the complex or per binding partner.
